The source of these data is US20220089710A1, “Method of Treating Signs and Symptoms of Osteoarthritis” (Pfizer Inc., priority 2019, published 2022).

For data set [1], the system named is patients with moderate to severe OA of the hip or knee. The data set can be described thus: Example 1: safety assessments (adverse events, neurological assessments). Type of data set: in vivo, human. To be noted: SC 2.5 mg and 2.5/5 mg regimens. The text has this: Safety assessments included: adverse event (AE) reporting; laboratory testing; 12-lead electrocardiogram; sitting vital signs; orthostatic blood pressure assessments; physical examinations; musculoskeletal examinations; neurological examinations reported using the Neuropathy Impairment Score (Dyck et al., Neurology. 1995; 45(6):1115-1121); Survey of Autonomic Symptoms scores (Zilliox et al., Neurology. 2011; 76(12):1099-1105); adjudication of joint safety events including total joint replacements (TJRs); and anti-drug antibody assessments. AEs were coded using MedDRA v21.0. AE severity and relationship to study treatment were assessed by the investigator.
Patients meeting protocol-specified criteria were further evaluated for peripheral neuropathy and/or sympathetic autonomic neuropathy. Neurological examinations were conducted at all clinic visits by investigators or designated physicians who received protocol-required training, and findings were recorded using the Neuropathy Impairment Score (Dyck et al).

The target in a further data set is NGF (Homo sapiens, UniProt P01138). The conditions noted are these: cited from earlier work.
Sequence of NGF (P01138 122-241): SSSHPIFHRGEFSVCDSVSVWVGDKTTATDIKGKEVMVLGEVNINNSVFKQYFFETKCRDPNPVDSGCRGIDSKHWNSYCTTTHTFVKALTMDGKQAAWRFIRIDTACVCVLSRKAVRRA

For “tanezumab: humanized immunoglobulin G Type 2 (IgG2) monoclonal antibody directed against human nerve growth factor (NGF); SEQ ID NOs: 9 or 11 and 10”, the “overall safety and tolerability” value in data set [1] is “generally safe and well-tolerated”. In addition, the “binding to human NGF” value in the data set with NGF was “high affinity and specificity”.
